The source of these data is PMC5777782, “Dimeric and tetrameric forms of muscle fructose-1,6-bisphosphatase play different roles in the cell” (Oncotarget, 2017).

In test [1] the target is T1, Muscle fructose-1,6-bisphosphatase (FBP2), D187L mutant (Homo sapiens, UniProt O00757, D188L).
T1 construct: tag-free FBP2, expressed in E. coli
T1 sequence (O00757 2-339 D188L): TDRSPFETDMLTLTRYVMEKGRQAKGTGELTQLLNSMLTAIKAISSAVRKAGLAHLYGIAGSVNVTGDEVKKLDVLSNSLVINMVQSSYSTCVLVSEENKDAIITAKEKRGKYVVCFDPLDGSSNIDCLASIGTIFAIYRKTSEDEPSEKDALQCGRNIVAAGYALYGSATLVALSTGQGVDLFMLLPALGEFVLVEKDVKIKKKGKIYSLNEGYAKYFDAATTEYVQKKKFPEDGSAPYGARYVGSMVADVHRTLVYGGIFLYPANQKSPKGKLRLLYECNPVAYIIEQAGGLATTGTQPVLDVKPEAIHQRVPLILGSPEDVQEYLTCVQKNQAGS
Put plainly: coupled enzyme activity assay; oligomerization by sedimentation velocity ultracentrifugation. In kind it is biochemical.

Test [2] concerns the target T2, Muscle fructose-1,6-bisphosphatase (FBP2), L190G mutant (Homo sapiens, UniProt O00757, L191G).
T2 construct: tag-free FBP2, expressed in E. coli
T2 sequence (O00757 2-339 L191G): T1 sequence (O00757 2-339 D188L) with L187D, L190G
As to the kind of experiment: coupled enzyme activity assay, biphasic inhibition (second phase IC50 […]). In kind it is biochemical.

For test [3], the target named is T3, Muscle fructose-1,6-bisphosphatase (FBP2), wild-type (Homo sapiens, UniProt O00757).
T3 construct: tag-free WT FBP2, expressed in E. coli
T3 sequence (O00757 2-339): T1 sequence (O00757 2-339 D188L) with L187D
Put plainly: coupled glucose 6-phosphate isomerase/glucose 6-phosphate dehydrogenase activity assay; AMP-induced tetramerization by sedimentation velocity ultracentrifugation. In kind it is biochemical.

Test [4] concerns the target human FBP2 D187L mutant (human). Put plainly: AUC; sedimentation velocity, laser interferometry, 42,000 rpm, 20°C, protein at 0.5 mg/ml, with 120 μM AMP.
For test [5] the target is unchanged. As to the kind of experiment: AUC; sedimentation velocity, laser interferometry, 42,000 rpm, 20°C, protein at 0.5 mg/ml, with 5 mM AMP.
Test [6] has the same target. Put plainly: AUC; sedimentation velocity, laser interferometry, 42,000 rpm, 20°C, protein at 0.1, 0.5 and 1 mg/ml, without AMP; distribution of monomers, dimers and tetramers.
The target of test [7] is human FBP2 L190G mutant (human). As to the kind of experiment: AUC; sedimentation velocity, laser interferometry, 42,000 rpm, 20°C, protein at 0.5 mg/ml, with 0.16 μM AMP.
For test [8] the target is unchanged. As to the kind of experiment: AUC; sedimentation velocity, laser interferometry, 42,000 rpm, 20°C, protein at 0.5 mg/ml, with 120 μM AMP.
Test [9] shares this target. As to the kind of experiment: AUC; sedimentation velocity, laser interferometry, 42,000 rpm, 20°C, protein at 0.5 mg/ml, with 5 mM AMP.
Test [10] shares this target. Put plainly: AUC; sedimentation velocity, laser interferometry, 42,000 rpm, 20°C, protein at 0.1, 0.5 and 1 mg/ml, without AMP; distribution of monomers, dimers and tetramers.

Residue numbers refer to the chain shown, from its start.

Turning to `Nc1ncnc2c1ncn2[C@@H]1O[C@H](COP(=O)(O)O)[C@@H](O)[C@H]1O` [AMP], the IC50 – broadly, the concentration at which inhibition is half-maximal – worked out at 1440 ± 60 nM in [1], 84400 ± 6730 nM in test [2] and 0.59 ± 0.01 µM in test [3].
human FBP2 D187L mutant (enzyme) returned a percent tetrameric in [4] of 45%. The compound also registered a percent tetrameric in test [5] of 35%. In test [6], the percent dimeric came out at 83.4% and the stoichiometry N (commonly a count of units in the complex or per binding partner) was 2.
In the case of human FBP2 L190G mutant (enzyme), the stoichiometry N in [7], in test [8], in [9] and in test [10] was 2 each time. In test [10], this compound showed a percent dimeric of 91.2%.
